B1: sFRP1: Wnt pathway antagonist (R&D systems) (protein, UniProt Q8N474 32-314, looked up)
Secreted frizzled-related …: SEYDYVSFQSDIGPYQSGRFYTKPPQCVDIPADLRLCHNVGYKKMVLPNLLEHETMAEVKQQASSWVPLLNKNCHAGTQVFLCSLFAPVCLDRPIYPCRWLCEAVRDSCEPVMQFFGFYWPEMLKCDKFPEGDVCIAMTPPNATEASKPQGTTVCPPCDNELKSEAIIEHLCASEFALRMKIKEVKKENGDKKIVPKKKKPLKLGPIKKKDLKKLVLYLKNGADCPCHQLDNLSHHFLIMGRKVKSQYLLTAIHKWDKKNKEFKNFMKKMKNHECPTFQSVFK
B2: DKK1: Wnt pathway antagonist (R&D systems) (protein, UniProt O94907 32-266, looked up)
Dickkopf-related protein 1: TLNSVLNSNAIKNLPPPLGGAAGHPGSAVSAAPGILYPGGNKYQTIDNYQPYPCAEDEECGTDEYCASPTRGGDAGVQICLACRKRRKRCMRHAMCCPGNYCKNGICVSSDQNHFRGEIEETITESFGNDHSTLDGYSRRTTLSSKMYHTKGQEGSVCLRSSDCASGLCCARHFWSKICKPVLKEGQVCTKHRRKGSHGLEIFQRCYCGEGLSCRIQKDHHQASNSSRLHTCQRH

Assays:
human adult kidney cells = experiment: qRT-PCR after Wnt antagonists DKK1/sFRP1 with or without VPA; assay type: cell-based; conditions: DKK1 3 μg/ml or sFRP1 7 μg/ml 72 h; for Osr1 expression, Wnt antagonist combined with VPA / Six2 expression, Wnt antagonist combined with VPA: VPA 4 mM last 24 h; for Osr1 expression, Wnt antagonist alone: no VPA
Procedure: (§1) Cell Treatment: Cells were treated for 24 hours with growth medium supplemented with 1, 2, or 4 mM VPA (Sigma) or with H2O for control sample. Otherwise, cells were treated for 24 hours with growth medium supplemented with the combination of 75 μM TSA (Sigma) and 250 μM 5-AZA (Sigma) or with 100% Ethanol and Acetic Acid (Acetic Acid: H2O 1:1) for control sample. […] 24 hours prior to harvesting VPA at a concentration of 4 mM was added to the cell culture.
(§2) Quantitative Reverse Transcription-PCR: Total RNA from kidney tissue cultured cells was isolated using the TRIZOL reagent (Invitrogen) according to the manufacturer's protocols. cDNA synthesis was carried out using Verso kit (Thermo scientific) with Random primers. Quantitative RT PCR was performed using an ABI7900HT sequence detection system (Perkin-Elmer/Applied Biosystems) in the presence of SYBR green (SYBR green PCR kit; Qiagen). Each analysis reaction was performed in duplicates or triplicates. GapDH was used as an endogenous control throughout all experimental analyses. Analysis was performed using the −ΔΔCt method, which determines fold changes in gene expression relative to a comparator sample.

human fetal kidney cells = experiment: as above; assay type: cell-based
Procedure: as §1, §2

[1] = fetal kidney cells, DKK1 3 μg/ml or sFRP1 7 μg/ml 72 h, VPA 4 mM last 24 h
[2] = fetal kidney cells, DKK1 3 μg/ml or sFRP1 7 μg/ml 72 h, no VPA

Molecule	Osr1 expression, Wnt antagonist combined with VPA (human adult kidney cells)	Six2 expression, Wnt antagonist combined with VPA (human adult kidney cells)	Osr1 expression, Wnt antagonist alone (human adult kidney cells)	Six2 expression, Wnt antagonist alone (human fetal kidney cells; FK cells, DKK1 3 μg/ml or sFRP1 7 μg/ml 72 h, no VPA)	Osr1 expression, Wnt antagonist combined with VPA (human fetal kidney cells; [1])	Osr1 expression, Wnt antagonist alone (human fetal kidney cells; [2])	Six2 expression, Wnt antagonist combined with VPA (human fetal kidney cells; fetal kidney cells, sFRP1 7 μg/ml 72 h, VPA 4 mM last 24 h)
B1	synergistic affect	synergistic effect	little effect	elevated Six2 levels	synergistic affect	little effect	synergistic effect
B2	synergistic affect	synergistic effect	little effect	–	synergistic affect	little effect	–

From patent US9770469B2, “Methods of reprogramming renal cells” (Tel HaShomer Medical Research Infrastructure and Services …, priority 2009, dated 2017)
